Test results published in patent US20260266833A1 (AXOIYA, published 2026).
Substitutions are numbered along the chain they refer to. Names may count otherwise. Non-standard residues stand in square brackets, D forms with d. No end group written: not given here. *: point of attachment. Biotin = O=C1N[C@H]2[C@H](CS[C@H]2CCCCC(=O)*)N1; Arg(Me) = CNC(=N)NCCC[C@H](N)C(=O)O; Ahx = NCCCCCC(=O)O

T1: H3K14
T1 construct: also called H3K14 peptide (non-modified)
T1 peptide: {Biotin-Ahx}-TARKSTGGKAPRKQLAT

T2: H3R17me1
T2 construct: also called H3R17me1 peptide
T2 peptide: {Biotin-Ahx}-KSTGGKAP[Arg(Me)]KQLATKAA

T3: H3R17
T3 construct: also called H3R17 peptide (non-modified)
T3 peptide: {Biotin-Ahx}-KSTGGKAPRKQLATKAA

T4: H3K14Ac
T4 construct: also called H3K14Ac peptide
T4 peptide: {Biotin-Ahx}-TARKSTGGK(Ac)APRKQLAT

T5: H3K27me3 peptide (Kme3 (trimethyl-lysine) at the 10th residue (KQLATKAARKme3SAPATGGVK); N-terminus biotin + aminohexanoic acid linker, or FITC at the N-terminus for fluorescence polarization)
T5 construct: Synthetic peptide (GenScript); One entry is used for the biotinylated and the FITC-labelled form
T5 peptide: KQLATKAARKSAPATGGVK

B1: Cbx7.VD chromodomain-luciferase fusion (designed binder)
chain: MSYYHHHHHHGSDYKDDDDKSSGENLYFQGSGGSSAIGEDVFAVESIRKKRVRKGKVEYLVKWEGWPPKYSTWEPEEHILDPRLVMAYEEKEERDRASGYRKRGPK
notes: not shown: engineered YY5 firefly luciferase from Photinus pyralis fused to the C-terminus
B2: Cbx2.VD chromodomain-luciferase fusion (designed binder)
chain: MSYYHHHHHHGSDYKDDDDKSSGENLYFQGSGGSGEDVFAAECILSKRLRKGKLEYLVKWEGWSSKHNSWEPEENILDPRLLLAFQKKEHEKEVQNR
notes: as for B1
B3: Cbx8.VD chromodomain-luciferase fusion (designed binder)
chain: MSYYHHHHHHGSDYKDDDDKSSGENLYFQGSGGSGEDVFAAEALLKRRIRKGRMEYLVKWEGWSQKYSTWEPEENILDARLLAAFEEREREMELYGP
notes: as for B1
B4: phage-displayed Cbx7.V4 (designed binder)
chain: SAICDNVFAVESIRKKRVRKGKVEYLVKWEGWPQEYSTWEPEEHILDPRLVMAYEEKEERDRASGYRKRGPK
B5: phage-displayed Cbx7.V1 (designed binder)
chain: B4 chain with C4G, N6D, V7I, Q34L
B6: phage-displayed Cbx7.V2 (designed binder)
chain: B4 chain with F8Y, A9P, E30K, Q34L
B7: phage-displayed Cbx7.V3 (designed binder)
chain: B4 chain with D5E, N6Y, V7I, A9S, Q34P, S37M
B8: phage-displayed Cbx7.V5 (designed binder)
chain: B4 chain with C4G, D5H, N6D, A9P, E30R, G31D, Q34E, E35Q
B9: phage-displayed Cbx7.V6 (designed binder)
chain: B4 chain with C4F, D5E, N6D, A9P, E30K, Q34S
B10: Cbx7.VD chromodomain (tags removed) (designed binder)
chain: B4 chain with C4G, D5E, N6D, Q34P, E35K
notes: also called Cbx7 Q9D/K33E
B11: Cbx2.VD chromodomain (tags removed) (designed binder)
chain: GEDVFAAECILSKRLRKGKLEYLVKWEGWSSKHNSWEPEENILDPRLLLAFQKKEHEKEVQNR
B12: Cbx7.V1 back-mutant D8E, His6- and Flag-tagged (designed binder, not shown: small tags and cut ends)
chain: B4 chain with C4G, D5E, N6D, V7I, Q34L
B13: Cbx7.V1 back-mutant D9Q, His6- and Flag-tagged (designed binder, not shown: small tags and cut ends)
chain: B4 chain with C4G, N6Q, V7I, Q34L
B14: Cbx7.V1 back-mutant E38K, His6- and Flag-tagged (designed binder, not shown: small tags and cut ends)
chain: B4 chain with C4G, N6D, V7I, Q34L, E35K
B15: Cbx7.V1 back-mutant I10V, His6- and Flag-tagged (designed binder, not shown: small tags and cut ends)
chain: B4 chain with C4G, N6D, Q34L
B16: Cbx7.V1 back-mutant L37P, His6- and Flag-tagged (designed binder, not shown: small tags and cut ends)
chain: B4 chain with C4G, N6D, V7I, Q34P
B17: Cbx7.V1 chromodomain, His6- and Flag-tagged (designed binder, not shown: small tags and cut ends)
chain: B4 chain with C4G, N6D, V7I, Q34L
notes: BLI form; tags are said to be removed only for FP and ITC
B18: Cbx7.wt chromodomain-luciferase fusion (other)
chain: B1 chain with D40Q, E64K
notes: as for B1
B19: Cbx7 K33E chromodomain (tags removed) (designed binder)
chain: B4 chain with C4G, D5E, N6Q, Q34P, E35K
notes: FP: His6 and Flag tags removed with TEV protease
B20: Cbx7 Q9D chromodomain (tags removed) (designed binder)
chain: B4 chain with C4G, D5E, N6D, E30K, Q34P, E35K
notes: as for B19

Each binder was assayed against T6, H4K20me3 (Kme3 at peptide residue 8 (histone H4 K20); N-terminal biotin and aminohexanoic acid linker) (assay: luciferase-fusion assay on immobilized peptide, fusion at 0.1 nM, normalized to H3K9me3).
T6 construct: also called H4K20Me3 peptide
Description: (§1) For luciferase-based assays, 384-well white plates (PerkinElmer) were coated for 16 h at 4° C. with 4 μg/ml streptavidin (New England Biolabs, N7021S) in TBS pH 8.5 (50 mM Tris-HCl pH 8.5, 150 mM NaCl). Each well was blocked with 60 μl/well of TBS pH 8.5 containing 0.5% BSA (TB buffer) and incubated at 25° C. for 1 h. Plates were washed four times with 90 μl/well of PBS pH 7.4, 0.05% Tween-20 (PT buffer) and incubated with 25 μl/well of biotinylated histone peptides at 5 μg/ml in TB buffer pH 8.5 for 30 min at 25° C. Plates were washed and incubated with Cbx chromodomain-luciferase fusions diluted to 0.1 nM for Cbx. VD or 100 nM for Cbx.wt in TB buffer, 0.05% Tween-20, 1 mM DTT, 5% glycerol (TBT buffer). Plates were incubated for 1 h at 25° C. with gentle shaking, washed six times and luminescence intensity was measured with a Biotek Synergy 5 plate reader (Biotek) using the ONE-Glo™ EX luciferase assay system reagent (Promega). Following background subtraction of the luminescence signal derived from wells coated with streptavidin, the luminescence intensity was normalized to wells with immobilized H3K9me3 peptide.
(§2) To enhance detection sensitivity, each chromodomain was expressed as a fusion to the N-terminus of an engineered firefly luciferase and binding was measured by luminescence intensity.

Binder	binding result
B1	binds

These binders were tested against T7, H4K20 peptide (N-terminus biotin + aminohexanoic acid linker) in the same assay as above.
Description: as §1, §2

Binder	binding result
B1	binds

Biological target: T1, H3K14
Test: luciferase-fusion assay on immobilized peptide
Description: as §1, §2

Binder	binding result
B1	no binding (tested: 0.1 nM)
B2	no binding (tested: 0.1 nM)
B3	no binding (tested: 0.1 nM)

Each binder was assayed against T6, H4K20me3 (assay: luciferase-fusion assay on immobilized peptide).
Description: as §1, §2

Binder	binding result
B2	no binding (tested: 0.1 nM)
B3	no binding (tested: 0.1 nM)

Biological target: T2, H3R17me1
Test: luciferase-fusion assay on immobilized peptide
Description: as §1, §2

Binder	binding result
B1	no binding (tested: 0.1 nM)
B2	no binding (tested: 0.1 nM)

Each binder was assayed against T7, H4K20 peptide (assay: luciferase-fusion assay on immobilized peptide).
Description: as §1, §2

Binder	binding result
B2	no binding (tested: 0.1 nM)
B3	no binding (tested: 0.1 nM)

Biological target: T3, H3R17
Test: luciferase-fusion assay on immobilized peptide
Description: as §1, §2

Binder	binding result
B1	no binding (tested: 0.1 nM)
B2	no binding (tested: 0.1 nM)
B3	no binding (tested: 0.1 nM)

Biological target: T4, H3K14Ac
Test: phage ELISA, specificity heatmap
Description: (§3) Phage ELISA experiments were performed by coating 384-well MAXISORP plates (Thermo Fisher Scientific) with 25 μl/well of 2 μg/ml streptavidin (New England Biolabs, N7021S) in PBS pH 7.4, and incubating them at 4° C. for 16 h. Each well was blocked with 60 μl/well of PBS pH 7.4 containing 0.5% BSA (PB buffer) and incubated at 25° C. for 1 h. Plates were washed four times with 90 μl/well of PBS pH 7.4 containing 0.05% Tween-20 (PT buffer) and incubated with 25 μl/well of biotinylated histone peptides at 2 μg/ml in PBS pH 7.4 for 30 min at 25° C. Plates were incubated with phage stocks previously diluted three-fold in PB buffer containing 0.05% Tween-20 (PBT buffer) at 25° C. for 1 h with gentle agitation. Plates were washed and bound phage was detected using 25 μl/well of an anti-M13-HRP-conjugated antibody (1:3,000 dilution in PT buffer; SinoBiological, 11973-MM05T-H). Following incubation at 25° C. for 30 min with gentle shaking, plates were washed, and binding was assessed by adding 25 μl/well of the 3,3′,5,5′-tetramethylbenzidine (TMB) (Thermo Fisher) chromogenic substrate. Plates were incubated with TMB at 25° C. with gentle shaking for 5-10 min, and the colorimetric reaction was stopped by addition of 25 μl/well of a IM H3PO4 solution. Plates were read spectrophotometrically at 450 nm using a PowerWave XS microplate reader (BioTek).

Binder	binding result
B4	no binding
B5	no binding
B6	no binding
B7	no binding
B8	no binding
B9	no binding

Biological target: T1, H3K14
Test: phage ELISA, specificity heatmap
Description: as §3

Binder	binding result
B4	no binding
B5	no binding
B6	no binding
B7	no binding
B8	no binding
B9	no binding

The binders below were run against T6, H4K20me3 (assay: phage ELISA, specificity heatmap).
Description: as §3

Binder	binding result
B4	no binding
B5	no binding
B6	no binding
B7	no binding
B8	no binding
B9	no binding

What follows are binders tested against T7, H4K20 peptide (assay: phage ELISA, specificity heatmap).
Description: as §3

Binder	binding result
B4	no binding
B5	no binding
B6	no binding
B7	no binding
B8	no binding
B9	no binding

Biological target: T5, H3K27me3 peptide
Test: fluorescence polarization, FITC-peptide 0.5 nM
Description: (§4) Fluorescence polarization (FP) assays were performed in a 20 μl volume at a constant histone peptide concentration of 0.5 nM. Binding measurements were performed in FP buffer (25 mM HEPES pH 7.5, 150 mM NaCl, 1 mM DTT, 0.01% TritonX-100) by mixing in a 384-well black plate (Corning) 0.5 nM FITC-labeled histone peptides with serial dilutions of wild-type Cbx chromodomains ranging from 200-0.2 μM. For affinity determination of Cbx7.V1 and all Cbx. VDs, chromodomains were serially diluted from 50 μM to 50 nM. Samples were incubated for 30 min at 25° C. prior to data acquisition. […] Dissociation constants were determined using Prismv.9.3 (GraphPad Software Inc) with a one-site total binding model.
FP assays was used to measure the affinities of each wild-type Cbx chromodomain (Cbx.wt) and its Cbx. VD version for the H3K9me3 and H3K27me3 peptides (Table 13).

Binder	Kd
B10	5000 nM
B11	3000 nM

Biological target: T5, H3K27me3 peptide
Test: BLI, biotinylated peptide on streptavidin tips, steady state
Description: BLI experiments were performed on an Octet HTX system (ForteBio) using biosensor tips coated with streptavidin to immobilize biotinylated H3K9me3 and H3K27me3 peptides. Binding analysis was performed by analyzing the association of biosensor-immobilized methylated peptides to Cbx7.V1 variants in solution at 5 or 1 μM. Binding assays were performed at 25° C. in BLI reaction buffer (25 mM HEPES pH 7.0, 150 mM NaCl, 1 mg/ml BSA, 0.01% Tween-20). Dissociation constants (KD) were obtained by fitting the response wavelength shifts in the steady-state regions with the Langmuir binding model.

Binder	Kd
B12	2000 nM
B13	2000 nM
B14	1500 nM
B15	2000 nM
B16	2500 nM
B17	2000 nM

The binders below were run against T6, H4K20me3 (assay: luciferase-fusion assay on immobilized peptide, fusion at 100 nM, normalized to H3K9me3).
Description: as §1, §2

Binder	binding result
B18	binds

What follows are binders tested against T7, H4K20 peptide in the same assay as above.
Description: as §1, §2

Binder	binding result
B18	binds

Biological target: T5, H3K27me3 peptide
Test: fluorescence polarization, FITC-peptide 0.5 nM
Remark: another data set of the same source
Description: as §4

Binder	Kd
B19	20000 nM
B20	100000 nM
B10	5000 nM
